From paper PMC10204968

Molecular target: Hfq (His6-Hfq) (Histophilus somni strain 2336) (UniProt B0UTF5)
Experiment: EMSA
Conditions: 10 mM Tris-HCl pH 7.4, 6% glycerol, 50 ug/ml BSA, 0.75 ug baker's yeast tRNA, 200 ng sRNA, 15 ul, room temperature 30 min; 6% native PAGE, 0.5x TBE, GelGreen …

Chain of Hfq (His6-Hfq) (Histophilus somni strain 2336) (B0UTF5 whole entry): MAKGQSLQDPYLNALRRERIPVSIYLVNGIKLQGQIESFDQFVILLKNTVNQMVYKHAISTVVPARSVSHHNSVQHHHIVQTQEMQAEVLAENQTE

| Sequence | binding |
| --- | --- |
| GGGAAUAAUACUGAAUAAUAGCUAUAUUACGACAAAGGGCGUAAGCUGCCACAAGUGCUACUUAAUCGGGCGUAAGCUGCCAUAAGUGCUACUUAAUUAGGUGCAAGCUACCGUAAGUGCUGAAGAAAAGAUGCCUAACGGCAUCUUUUUUUUGCU [HS9 sRNA] | binds |
| GGGCGCUGGCAGGCUAAUGACUAAUAAGAUGAUAACUAGGAUAAUGUAUUUAAACAUUGUGUUAUCCUCUUCAAAGUUGGGUGGAUUGAAGGUCGCACCCAGCUCGUUUCCGCAGUAUUGCGAAAACAAGAAUAUUAUAGGUCGUUUUAUAUUUCUGGUCAAGGAAUAAAACGACCUAUUUUUUAUUUGAC [HS97 sRNA] | binds |
